Tests used:
Test in all cases: cell-based or functional assay
[1] = molecular target: HIV-1 JR-FL Env E168K (pseudovirus) (HIV-1 JR-FL)
[2] = molecular target: HIV-1 Env of isolate ZM233 (HIV-1)
[3] = molecular target: HIV-1 Env of isolate CAAN (HIV-1)
[4] = molecular target: HIV-1 92TH021 Env (clade AE pseudovirus) (HIV-1)
[5] = molecular target: HIV-1 JRCSF Env (clade B pseudovirus) (HIV-1) (UniProt P20871)
[6] = molecular target: HIV-1 MGRM-AG-005 Env (pseudovirus) (HIV-1)
[7] = molecular target: HIV-1 Env of isolate MGRM-A-010 (clade A) (HIV-1)
[8] = molecular target: HIV-1 JR-CSF Env K305A (HIV-1 JR-CSF) (UniProt P20871)
[9] = molecular target: HIV-1 envelope glycoprotein (Env) of isolate MGRM-Chronic-B-020, on pseudovirus (HIV-1)
[10] = molecular target: HIV-1 Env of isolate QH0692.42 (subtype B) (HIV-1)
[11] = molecular target: HIV-1 Env of isolate MGRM-AE-002 (pseudovirus) (HIV-1)
[12] = molecular target: HIV-1 Env of isolate APV_6 (HIV-1)
[13] = molecular target: HIV-1 Env of isolate 92RW008 (clade A), on pseudovirus (HIV-1)
[14] = molecular target: HIV-1 Env of isolate MG RM-A-008 (pseudovirus) (HIV-1)
[15] = molecular target: HIV-1 Env of isolate 92WR021 (pseudovirus) (HIV-1)
[16] = molecular target: HIV-1 Env of isolate MG RM-A-010 (pseudovirus) (HIV-1)
[17] = molecular target: HIV-1 Env of isolate 92UG114 (subtype D), on pseudovirus (HIV-1)
[18] = molecular target: HIV-1 Env of isolate MGRM-AE-006 (pseudovirus) (HIV-1)
[19] = molecular target: HIV-1 Env of isolate MGRM-AE-003 (pseudovirus) (HIV-1)
[20] = molecular target: HIV-1 Env of isolate 98CN006 (subtype CRF08 BC), on pseudovirus (HIV-1)
[21] = molecular target: HIV-1 Env of isolate MG RM-A-014 (pseudovirus) (HIV-1)
[22] = molecular target: HIV-1 Env of isolate MGRM-D-004 (subtype D), on pseudovirus (HIV-1)
[23] = molecular target: HIV-1 Env of isolate MGRM-D-008 (subtype D), on pseudovirus (HIV-1)
[24] = molecular target: HIV-1 Env of isolate 94UG103 (pseudovirus) (HIV-1)
[25] = molecular target: HIV-1 Env of isolate CMU02 (pseudovirus) (HIV-1)
[26] = molecular target: HIV-1 Env of isolate MGRM-D-003 (subtype D), on pseudovirus (HIV-1)
[27] = molecular target: HIV-1 Env of isolate 93WR029 (pseudovirus) (HIV-1)
[28] = molecular target: HIV-1 Env of isolate 92UG031 (pseudovirus) (HIV-1)
[29] = molecular target: HIV-1 Env of isolate MGRM-AE-004 (pseudovirus) (HIV-1)
[30] = molecular target: HIV-1 Env of isolate MG RM-A-007 (pseudovirus) (HIV-1)

Sequence of 1443_C16 (PG16) (TCN-116) (antibody) (VH): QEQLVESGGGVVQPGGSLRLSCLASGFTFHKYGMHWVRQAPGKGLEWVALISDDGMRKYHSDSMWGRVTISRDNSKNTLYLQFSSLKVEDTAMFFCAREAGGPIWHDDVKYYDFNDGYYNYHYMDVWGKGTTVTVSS
Sequence of 1443_C16 (PG16) (TCN-116) (antibody) (VL): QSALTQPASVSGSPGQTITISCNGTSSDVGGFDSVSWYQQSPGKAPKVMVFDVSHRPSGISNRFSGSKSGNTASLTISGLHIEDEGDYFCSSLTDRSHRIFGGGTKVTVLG

1443_C16 (PG16) (TCN-116) (antibody)
IC50 (ug/ml), neutralization [1]: 0.006 µg/mL | IC50, pseudovirus neutralization (TZM-bl) [2]: < 0.01 µg/mL | IC50, pseudovirus neutralization (TZM-bl) [3]: 6.37 µg/mL

4877_D15 (PGT-122) (antibody)
Neutralization by PGT-122, IC50 [4]: > 10 µg/mL | Neutralization by PGT-122, IC80 [4]: > 10 µg/mL | Neutralization by PGT-122, IC90 [4]: > 10 µg/mL | Neutralization by PGT-122, IC95 [4]: > 10 µg/mL | Neutralization by PGT-122, IC50 [5]: 0.0727 µg/mL | Neutralization by PGT-122, IC80 [5]: 0.245 µg/mL | Neutralization by PGT-122, IC90 [5]: 0.494 µg/mL | Neutralization by PGT-122, IC95 [5]: 0.926 µg/mL

5141_B17 (PGT-126) (antibody)
IC50 [6]: 1.35 µg/mL | IC80 [6]: > 10 µg/mL | IC90 [6]: > 10 µg/mL | IC95 [6]: > 10 µg/mL

5147_N06 (PGT-130) (antibody)
neutralization IC50 [7]: 0.0054 µg/mL | neutralization IC80 [7]: 0.0251 µg/mL | neutralization IC90 [7]: 0.0643 µg/mL | neutralization IC95 [7]: 0.164 µg/mL

PGT-121 (antibody)
Fold IC50 increase relative to wild-type [8]: 1.9 fold

PGV04 (antibody)
IC50, pseudovirus neutralization [9]: 1.26 µg/mL | IC50 (µg/mL), pseudovirus neutralization [10]: 1.9 µg/mL

VRC01 (antibody)
IC50 (µg/mL), pseudovirus neutralization [11]: 0.217 µg/mL | IC50 [12]: 1.81 µg/mL | IC50, single-round pseudovirus neutralization [13]: 0.037 µg/mL | IC50 (µg/mL), pseudovirus neutralization [14]: 0.303 µg/mL | IC50 (µg/mL), pseudovirus neutralization [15]: 0.066 µg/mL | IC50 (µg/mL), pseudovirus neutralization [16]: 0.325 µg/mL | IC50, pseudovirus neutralization [17]: 0.33 µg/mL | IC50 (µg/mL), pseudovirus neutralization [18]: 4.65 µg/mL | IC50 (µg/mL), pseudovirus neutralization [19]: 0.685 µg/mL | IC50, pseudovirus neutralization [20]: 0.644 µg/mL | IC50 (µg/mL), pseudovirus neutralization [21]: 0.135 µg/mL | IC50, pseudovirus neutralization [22]: 1.25 µg/mL | IC50, pseudovirus neutralization [23]: 0.854 µg/mL | IC50 (µg/mL), pseudovirus neutralization [24]: 0.285 µg/mL | IC50 (µg/mL), pseudovirus neutralization [25]: 0.515 µg/mL | IC50, pseudovirus neutralization [26]: 2.06 µg/mL | IC50 (µg/mL), pseudovirus neutralization [27]: 1.57 µg/mL | IC50 (µg/mL), pseudovirus neutralization [28]: 0.469 µg/mL | IC50 (µg/mL), pseudovirus neutralization [29]: 0.187 µg/mL | IC50 (µg/mL), pseudovirus neutralization [30]: 12.6 µg/mL

— US20200024330A1
